# Values quoted from earlier work, collected in US20230173142A1, “BALLISTIC DELIVERY TO MULTILAYERED TISSUES AND RELATED PARTICLES, COMPOSITIONS, METHODS AND SYSTEMS” (CALIFORNIA INSTITUTE OF TECHNOLOGY, priority 2021, published 2023).
# B1: G-CSF: granulocyte colony-stimulating factor (protein, UniProt P09919 31-207, looked up)
# Granulocyte …: TPLGPASSLPQSFLLKCLEQVRKIQGDGAALQEKLVSECATYKLCHPEELVLLGHSLGIPWAPLSSCPSQALQLAGCLSQLHSGLFLYQGLLQALEGISPELGPTLDTLQLDVADFATTIWQQMEELGMAPALQPTQGAMPAFASAFQRRAGGVLVASHLQSFLEVSYRVLRHLAQP
# Tested on: wound healing
# Conditions: Material: Nanofiber
molecule,measurement,value
B1,Effect,"Improved wound closure, scar reduction, fibroblast maturation, as well"
